Measured values reported in patent US20130012432A1 (Novo Nordisk, published 2013).
Positions of bridges follow the written chain, without caps; N, C: chain ends. Non-standard residues stand in square brackets, D forms with d. *: point of attachment. X3 = (2-(2-(15-carboxypentadecanoylamino)ethoxy)ethoxy)acetyl, O=C(O)CCCCCCCCCCCCCCC(=O)NCCOCCOCC(=O)*; biscarboxymethyl = Lys(biscarboxymethyl) = Nepsilon-bis(carboxymethyl)-L-lysine; Orn = NCCC[C@H](N)C(=O)O

Columns and labels:
human MC4 receptor = target: T1, human MC4 receptor (human, UniProt P32245 1-332); assay: 125I-NDP-α-MSH displacement, BHK-human MC4 membranes (Assay V);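 note: Filter-retained radioactivity read by gamma counting, with affinity obtained through non-linear regression fitting of the binding curves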
T1 construct: whole, on cells; Assayed as membranes of BHK cells stably expressing the receptor; also called melanocortin receptor subtype 4; melanocortin receptor 4
T1 sequence (P32245 whole entry): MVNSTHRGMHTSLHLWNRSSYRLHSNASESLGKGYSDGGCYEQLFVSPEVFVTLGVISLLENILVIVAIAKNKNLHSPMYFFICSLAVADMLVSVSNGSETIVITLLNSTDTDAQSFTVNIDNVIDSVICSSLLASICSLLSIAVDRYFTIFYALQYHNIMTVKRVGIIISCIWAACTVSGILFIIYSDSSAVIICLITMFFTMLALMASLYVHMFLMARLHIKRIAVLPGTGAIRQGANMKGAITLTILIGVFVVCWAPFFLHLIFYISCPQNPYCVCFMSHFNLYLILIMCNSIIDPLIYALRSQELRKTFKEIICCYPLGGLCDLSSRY
Protocol: The membranes were prepared from frozen or fresh cells that were homogenized in 20 mM HEPES pH 7.1, 5 mM MgCl₂ and 1 mg/ml bacitracin and centrifuged at 15000 rpm at 4° C., 10 min in a Sorvall RC 5B plus, SS-34 rotor. The supernatant was discarded, and the pellets were re-suspended in buffer, homogenized and centrifuged two more times. The final pellets were resuspended in the buffer mentioned above, and the protein concentration was measured and adjusted with buffer to 14 to 17 mg/ml and the membrane preparation were kept at −80° C. until assay. The assay was run directly on a dilution of this cell membrane suspension, without any further preparation. The BHK cell membranes are kept at −80° C. until assay, and the assay is run directly on a dilution of this cell membrane suspension, without further preparation. The suspension is diluted to give maximally 10% specific binding, i.e. to approx. 50-100 fold dilution. […] Test compounds were dissolved in DMSO and diluted in binding buffer. Radiolabelled ligand and membranes were diluted in binding buffer. The incubation was stopped by dilution with 2×100 μl ice-cold 0.9% NaCl. The radioactivity retained on the filters was counted using a Cobra II auto gamma counter.
(§1) The data were analysed by non-linear regression analysis of binding curves, using the Windows™ program GraphPad™ Prism (GraphPad Software, USA).

MC1 receptor = target: T2, MC1 receptor (UniProt Q01726 1-317, limits assumed); assay: 125I-NDP-α-MSH displacement, BHK-MC1 membranes (Assay IV);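 note: membrane incubations stopped by filtration, retained radioactivity counted, Ki fitted by nonlinear regression to binding curves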
T2 construct: whole, on cells; also called melanocortin receptor subtype 1; melanocortin receptor 1
T2 sequence (Q01726 whole entry): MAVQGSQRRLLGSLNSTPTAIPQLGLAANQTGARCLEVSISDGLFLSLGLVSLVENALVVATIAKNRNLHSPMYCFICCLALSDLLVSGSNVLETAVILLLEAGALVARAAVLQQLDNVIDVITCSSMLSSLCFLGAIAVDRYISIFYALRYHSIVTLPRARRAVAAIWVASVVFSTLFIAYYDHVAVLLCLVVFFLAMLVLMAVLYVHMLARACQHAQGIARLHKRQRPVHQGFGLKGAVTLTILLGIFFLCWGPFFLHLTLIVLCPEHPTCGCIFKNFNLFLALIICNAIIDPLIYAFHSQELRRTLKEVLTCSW
Protocol: The MC1 receptor binding assay was performed on BHK cell membranes stably expressing the MC1 receptor. […] Test compounds were dissolved in DMSO. […] Alternatively, HSA may be substituted with ovalbumin. The samples were incubated at 30° C. for 90 min. in Costar round-bottom microtiter plates. Incubation was terminated by filtration on a Packard harvester filtermate. […] The filters were washed with ice-cold 0.9% NaCl 8-10 times. […] The plates were counted in a Topcounter (1 min/well).
as §1

Ac-[Orn]H[dF]RWDPPREK(biscarboxymethyl)K(X3)-NH2 (lactam 1-6) was tested. Which Ki (human MC4 receptor) did it give?
Its Ki is 2.2 nM.

What about the Ki (MC1 receptor) of the same binder?
Its Ki is 2140 nM.
